# Measurements: article PMC3698143, “GRG5/AES Interacts with T-Cell Factor 4 (TCF4) and Downregulates Wnt Signaling in Human Cells and Zebrafish Embryos” (PLoS ONE, 2013)
# B1: HA-epitope-tagged GRG5/AES (natural protein, human, UniProt Q08117 1-197, looked up)
# chain: MMFPQSRHSGSSHLPQQLKFTTSDSCDRIKDEFQLLQAQYHSLKLECDKLASEKSEMQRHYVMYYEMSYGLNIEMHKQAEIVKRLNGICAQVLPYLSQEHQQQVLGAIERAKQVTAPELNSIIRQQLQAHQLSQLQALALPLTPLPVGLQPPSLPAVSAGTGLLSLSALGSQAHLSKEDKNGHDGDTHQEDDGEKSD
# Biological target: Myc-tagged full-length TCF4 (human, UniProt Q9NQB0-8 1-596)
# Sequence (Q9NQB0 other isoform, or with tags, fused parts or gaps): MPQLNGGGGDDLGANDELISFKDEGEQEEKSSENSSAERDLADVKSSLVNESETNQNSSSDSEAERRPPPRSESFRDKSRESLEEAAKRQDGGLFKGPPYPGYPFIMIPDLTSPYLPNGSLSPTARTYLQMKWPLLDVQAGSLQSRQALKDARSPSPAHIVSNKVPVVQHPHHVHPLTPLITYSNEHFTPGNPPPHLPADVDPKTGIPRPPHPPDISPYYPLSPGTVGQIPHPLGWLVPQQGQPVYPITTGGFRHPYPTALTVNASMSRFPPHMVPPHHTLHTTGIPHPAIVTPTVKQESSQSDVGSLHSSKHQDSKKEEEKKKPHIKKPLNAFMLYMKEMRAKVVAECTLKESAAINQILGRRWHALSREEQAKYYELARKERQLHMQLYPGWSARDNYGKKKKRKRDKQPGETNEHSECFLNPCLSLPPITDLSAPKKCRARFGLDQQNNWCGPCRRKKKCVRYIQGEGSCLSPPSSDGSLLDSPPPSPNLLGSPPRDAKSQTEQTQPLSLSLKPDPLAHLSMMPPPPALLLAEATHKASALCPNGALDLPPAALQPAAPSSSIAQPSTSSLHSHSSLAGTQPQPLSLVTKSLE
# Experiment: cell-based or functional assay
binder,measurement,value
B1,"TCF-Luc luciferase reporter in HEK293 cells with transfected β-catenin: repression on co-transfection of GRG5/AES and dnTCF4 plasmids (0.4 µg each), against a 6.3-fold additive effect of each alone",22.5 fold
